Assay results: the supplement of paper PMC10567573

B1: WSB1 (parent)
chain: FSHDGLHVASLADDKMVRFWRIDE
B2: ZNF263 (parent)
chain: FGGNPRFLSLHRAHLGEEAHKCLE

Variants of: B1
Assay: protein stability index of a GFP-peptide fusion (GPS, HEK-293T) (PSI 1-6); higher = more stable
Details: c terminus: a fixed tail appended
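Further: lentivirally expressed fusions sorted by FACS into six bins by GFP to DsRed ratio, PSI derived from sequencing read proportions per bin multiplied by bin number.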

| Variant | protein stability index |
| --- | --- |
| FSHDGLHVASLADDKMVRFERIDE | 3.18 |
| FSHDGLHVASLADDKMVRFFRIDE | 2.09 |
| FSHDGLHVASLADDKMVRFGRIDE | 2.79 |
| FSHDGLHVASLADDKMVRFHRIDE | 2.67 |
| FSHDGLHVASLADDKMVRFIRIDE | 2.85 |
| FSHDGLHVASLADDKMVRFKRIDE | 2.69 |
| FSHDGLHVASLADDKMVRFLRIDE | 1.88 |
| FSHDGLHVASLADDKMVRFMRIDE | 2.67 |
| FSHDGLHVASLADDKMVRFNRIDE | 2.66 |
| FSHDGLHVASLADDKMVRFPRIDE | 2.6 |
| FSHDGLHVASLADDKMVRFSRIDE | 2.7 |
| FSHDGLHVASLADDKMVRFTRIDE | 2.85 |
| FSHDGLHVASLADDKMVRFVRIDE | 2.77 |
| FSHDGLHVASLADDKMVRFYRIDE | 2.26 |
| FSHDGLHVASLADDKMVRFWAIDE | 1.39 |
| FSHDGLHVASLADDKMVRFWCIDE | 3.2 |
| FSHDGLHVASLADDKMVRFWDIDE | 2.19 |
| FSHDGLHVASLADDKMVRFWEIDE | 1.8 |
| FSHDGLHVASLADDKMVRFWGIDE | 1.47 |
| FSHDGLHVASLADDKMVRFWHIDE | 2.42 |
| FSHDGLHVASLADDKMVRFWIIDE | 3.26 |
| FSHDGLHVASLADDKMVRFWKIDE | 2 |
| FSHDGLHVASLADDKMVRFWLIDE | 1.59 |
| FSHDGLHVASLADDKMVRFWNIDE | 2.15 |
| FSHDGLHVASLADDKMVRFWPIDE | 2.35 |
| FSHDGLHVASLADDKMVRFWQIDE | 1.44 |
| FSHDGLHVASLADDKMVRFWSIDE | 2.12 |

| Variant | protein stability index |
| --- | --- |
| FSHDGLHVASLADDKMVRFWTIDE | 1.17 |
| FSHDGLHVASLADDKMVRFWWIDE | 2.12 |
| FSHDGLHVASLADDKMVRFWYIDE | 3.45 |
| FSHDGLHVASLADDKMVRFWRDDE | 2.27 |
| FSHDGLHVASLADDKMVRFWREDE | 2.54 |
| FSHDGLHVASLADDKMVRFWRFDE | 1.63 |
| FSHDGLHVASLADDKMVRFWRGDE | 3.54 |
| FSHDGLHVASLADDKMVRFWRHDE | 2.31 |
| FSHDGLHVASLADDKMVRFWRKDE | 2.66 |
| FSHDGLHVASLADDKMVRFWRMDE | 2.16 |
| FSHDGLHVASLADDKMVRFWRNDE | 2.09 |
| FSHDGLHVASLADDKMVRFWRPDE | 2.64 |
| FSHDGLHVASLADDKMVRFWRQDE | 2.45 |
| FSHDGLHVASLADDKMVRFWRSDE | 1.66 |
| FSHDGLHVASLADDKMVRFWRTDE | 1.65 |
| FSHDGLHVASLADDKMVRFWRWDE | 1.77 |
| FSHDGLHVASLADDKMVRFWRYDE | 1.69 |
| FSHDGLHVASLADDKMVRFWRICE | 1.21 |
| FSHDGLHVASLADDKMVRFWRIEE | 1.58 |
| FSHDGLHVASLADDKMVRFWRIFE | 2.1 |
| FSHDGLHVASLADDKMVRFWRIGE | 2.25 |
| FSHDGLHVASLADDKMVRFWRIHE | 1.85 |
| FSHDGLHVASLADDKMVRFWRIIE | 3.06 |
| FSHDGLHVASLADDKMVRFWRIKE | 2.02 |
| FSHDGLHVASLADDKMVRFWRILE | 2.35 |
| FSHDGLHVASLADDKMVRFWRIME | 1.73 |
| FSHDGLHVASLADDKMVRFWRINE | 1.8 |

| Variant | protein stability index |
| --- | --- |
| FSHDGLHVASLADDKMVRFWRIPE | 3.58 |
| FSHDGLHVASLADDKMVRFWRIQE | 1.9 |
| FSHDGLHVASLADDKMVRFWRIRE | 1.45 |
| FSHDGLHVASLADDKMVRFWRITE | 1.33 |
| FSHDGLHVASLADDKMVRFWRIVE | 1.81 |
| FSHDGLHVASLADDKMVRFWRIWE | 2.11 |
| FSHDGLHVASLADDKMVRFWRIYE | 1.34 |
| FSHDGLHVASLADDKMVRFWRIDA | 3.01 |
| FSHDGLHVASLADDKMVRFWRIDC | 4.37 |
| FSHDGLHVASLADDKMVRFWRIDD | 1.56 |
| FSHDGLHVASLADDKMVRFWRIDF | 2.68 |
| FSHDGLHVASLADDKMVRFWRIDG | 1.23 |
| FSHDGLHVASLADDKMVRFWRIDH | 1.16 |
| FSHDGLHVASLADDKMVRFWRIDI | 2.28 |
| FSHDGLHVASLADDKMVRFWRIDK | 1.84 |
| FSHDGLHVASLADDKMVRFWRIDL | 2.85 |
| FSHDGLHVASLADDKMVRFWRIDM | 2.05 |
| FSHDGLHVASLADDKMVRFWRIDN | 3 |
| FSHDGLHVASLADDKMVRFWRIDP | 1.86 |
| FSHDGLHVASLADDKMVRFWRIDR | 1.78 |
| FSHDGLHVASLADDKMVRFWRIDS | 1.61 |
| FSHDGLHVASLADDKMVRFWRIDT | 1.62 |
| FSHDGLHVASLADDKMVRFWRIDV | 2.12 |
| FSHDGLHVASLADDKMVRFWRIDW | 2.56 |
| FSHDGLHVASLADDKMVRFWRIDY | 1.97 |

Variants of: B2
Assay: as above
Details: c terminus: a fixed tail appended

| Variant | protein stability index |
| --- | --- |
| AGGNPRFLSLHRAHLGEEAHKCLE | 3.45 |
| CGGNPRFLSLHRAHLGEEAHKCLE | 2.63 |
| DGGNPRFLSLHRAHLGEEAHKCLE | 4.17 |
| EGGNPRFLSLHRAHLGEEAHKCLE | 3.61 |
| GGGNPRFLSLHRAHLGEEAHKCLE | 3.98 |
| HGGNPRFLSLHRAHLGEEAHKCLE | 3.19 |
| IGGNPRFLSLHRAHLGEEAHKCLE | 3.51 |
| KGGNPRFLSLHRAHLGEEAHKCLE | 2.95 |
| LGGNPRFLSLHRAHLGEEAHKCLE | 3.18 |
| MGGNPRFLSLHRAHLGEEAHKCLE | 3.81 |
| NGGNPRFLSLHRAHLGEEAHKCLE | 3.94 |
| PGGNPRFLSLHRAHLGEEAHKCLE | 3.7 |
| QGGNPRFLSLHRAHLGEEAHKCLE | 3.38 |
| RGGNPRFLSLHRAHLGEEAHKCLE | 3.69 |
| SGGNPRFLSLHRAHLGEEAHKCLE | 3.69 |
| TGGNPRFLSLHRAHLGEEAHKCLE | 3.48 |
| VGGNPRFLSLHRAHLGEEAHKCLE | 3.87 |
| WGGNPRFLSLHRAHLGEEAHKCLE | 1.99 |
| YGGNPRFLSLHRAHLGEEAHKCLE | 1.47 |
| FAGNPRFLSLHRAHLGEEAHKCLE | 1.59 |
| FCGNPRFLSLHRAHLGEEAHKCLE | 1.61 |
| FDGNPRFLSLHRAHLGEEAHKCLE | 3.68 |

| Variant | protein stability index |
| --- | --- |
| FEGNPRFLSLHRAHLGEEAHKCLE | 3.12 |
| FFGNPRFLSLHRAHLGEEAHKCLE | 2.55 |
| FHGNPRFLSLHRAHLGEEAHKCLE | 1.79 |
| FIGNPRFLSLHRAHLGEEAHKCLE | 1.64 |
| FKGNPRFLSLHRAHLGEEAHKCLE | 2.87 |
| FLGNPRFLSLHRAHLGEEAHKCLE | 2.25 |
| FMGNPRFLSLHRAHLGEEAHKCLE | 2.35 |
| FNGNPRFLSLHRAHLGEEAHKCLE | 2.22 |
| FPGNPRFLSLHRAHLGEEAHKCLE | 2.13 |
| FQGNPRFLSLHRAHLGEEAHKCLE | 1.38 |
| FRGNPRFLSLHRAHLGEEAHKCLE | 3.66 |
| FSGNPRFLSLHRAHLGEEAHKCLE | 1.74 |
| FTGNPRFLSLHRAHLGEEAHKCLE | 3.64 |
| FWGNPRFLSLHRAHLGEEAHKCLE | 2.24 |
| FYGNPRFLSLHRAHLGEEAHKCLE | 2.32 |
| FGANPRFLSLHRAHLGEEAHKCLE | 1.91 |
| FGCNPRFLSLHRAHLGEEAHKCLE | 2 |
| FGDNPRFLSLHRAHLGEEAHKCLE | 3.36 |
| FGENPRFLSLHRAHLGEEAHKCLE | 2.16 |
| FGFNPRFLSLHRAHLGEEAHKCLE | 2.69 |
| FGHNPRFLSLHRAHLGEEAHKCLE | 2.51 |
| FGINPRFLSLHRAHLGEEAHKCLE | 3.04 |

| Variant | protein stability index |
| --- | --- |
| FGKNPRFLSLHRAHLGEEAHKCLE | 2.36 |
| FGLNPRFLSLHRAHLGEEAHKCLE | 2.5 |
| FGMNPRFLSLHRAHLGEEAHKCLE | 2.05 |
| FGNNPRFLSLHRAHLGEEAHKCLE | 2.24 |
| FGPNPRFLSLHRAHLGEEAHKCLE | 2.13 |
| FGQNPRFLSLHRAHLGEEAHKCLE | 1.53 |
| FGRNPRFLSLHRAHLGEEAHKCLE | 2.48 |
| FGSNPRFLSLHRAHLGEEAHKCLE | 2.25 |
| FGTNPRFLSLHRAHLGEEAHKCLE | 2.17 |
| FGVNPRFLSLHRAHLGEEAHKCLE | 2.83 |
| FGWNPRFLSLHRAHLGEEAHKCLE | 2.14 |
| FGYNPRFLSLHRAHLGEEAHKCLE | 1.78 |
| FGGAPRFLSLHRAHLGEEAHKCLE | 2.87 |
| FGGCPRFLSLHRAHLGEEAHKCLE | 1.62 |
| FGGDPRFLSLHRAHLGEEAHKCLE | 2.13 |
| FGGEPRFLSLHRAHLGEEAHKCLE | 2.26 |
| FGGFPRFLSLHRAHLGEEAHKCLE | 2.15 |
| FGGGPRFLSLHRAHLGEEAHKCLE | 1.56 |
| FGGHPRFLSLHRAHLGEEAHKCLE | 1.97 |
| FGGIPRFLSLHRAHLGEEAHKCLE | 2.24 |
| FGGKPRFLSLHRAHLGEEAHKCLE | 2.31 |
| FGGLPRFLSLHRAHLGEEAHKCLE | 2.32 |

| Variant | protein stability index |
| --- | --- |
| FGGMPRFLSLHRAHLGEEAHKCLE | 1.03 |
| FGGPPRFLSLHRAHLGEEAHKCLE | 2.61 |
| FGGQPRFLSLHRAHLGEEAHKCLE | 1.51 |
| FGGRPRFLSLHRAHLGEEAHKCLE | 2.46 |
| FGGSPRFLSLHRAHLGEEAHKCLE | 1.14 |
| FGGTPRFLSLHRAHLGEEAHKCLE | 1.66 |
| FGGVPRFLSLHRAHLGEEAHKCLE | 2.44 |
| FGGWPRFLSLHRAHLGEEAHKCLE | 2.37 |
| FGGYPRFLSLHRAHLGEEAHKCLE | 1.53 |
| FGGNARFLSLHRAHLGEEAHKCLE | 2.03 |
| FGGNCRFLSLHRAHLGEEAHKCLE | 1.49 |
| FGGNDRFLSLHRAHLGEEAHKCLE | 1.35 |
| FGGNERFLSLHRAHLGEEAHKCLE | 2.19 |
| FGGNFRFLSLHRAHLGEEAHKCLE | 1.62 |
| FGGNGRFLSLHRAHLGEEAHKCLE | 1.64 |
| FGGNHRFLSLHRAHLGEEAHKCLE | 2.17 |
| FGGNIRFLSLHRAHLGEEAHKCLE | 1.52 |
| FGGNKRFLSLHRAHLGEEAHKCLE | 1.56 |
| FGGNLRFLSLHRAHLGEEAHKCLE | 1.69 |
| FGGNMRFLSLHRAHLGEEAHKCLE | 1.96 |
| FGGNNRFLSLHRAHLGEEAHKCLE | 3.16 |
| FGGNQRFLSLHRAHLGEEAHKCLE | 2.2 |

| Variant | protein stability index |
| --- | --- |
| FGGNRRFLSLHRAHLGEEAHKCLE | 2.01 |
| FGGNSRFLSLHRAHLGEEAHKCLE | 1.93 |
| FGGNTRFLSLHRAHLGEEAHKCLE | 2.17 |
| FGGNVRFLSLHRAHLGEEAHKCLE | 1.96 |
| FGGNWRFLSLHRAHLGEEAHKCLE | 1.96 |
| FGGNYRFLSLHRAHLGEEAHKCLE | 1.57 |
| FGGNPAFLSLHRAHLGEEAHKCLE | 3.22 |
| FGGNPCFLSLHRAHLGEEAHKCLE | 3.09 |
| FGGNPDFLSLHRAHLGEEAHKCLE | 1.83 |
| FGGNPEFLSLHRAHLGEEAHKCLE | 1.3 |
| FGGNPFFLSLHRAHLGEEAHKCLE | 2.25 |
| FGGNPGFLSLHRAHLGEEAHKCLE | 1.74 |
| FGGNPHFLSLHRAHLGEEAHKCLE | 2.37 |
| FGGNPIFLSLHRAHLGEEAHKCLE | 2.58 |
| FGGNPKFLSLHRAHLGEEAHKCLE | 2.77 |
| FGGNPLFLSLHRAHLGEEAHKCLE | 2.62 |
| FGGNPMFLSLHRAHLGEEAHKCLE | 2.5 |
| FGGNPNFLSLHRAHLGEEAHKCLE | 1.89 |
| FGGNPPFLSLHRAHLGEEAHKCLE | 2.73 |
| FGGNPQFLSLHRAHLGEEAHKCLE | 1.82 |
| FGGNPSFLSLHRAHLGEEAHKCLE | 1.79 |
